The test system of this series is p33^QIK, quiescence induced kinase, 33-kDa Krsl-related cytoplasmic protein kinase, endogenous in mouse NIH3T3 cytosolic lysate (S20).

As to “Protein phosphatase 1 (PP1) (NE BioLabs)”, the “kinase activity of p33^QIK in Ab-KQ immune complexes after phosphatase treatment (in-gel kinase assay, MBP substrate)” value is reported as “treatment of activated p33^QIK with protein phosphatase PP1 ... resulted in deactivation of p33^QIK This deactivation was suppressed by phosphatase inhibitors”.

Values taken from patent US20030170252.
